Laboratory results taken from patent US20200399712A1, “COMPOSITIONS AND METHODS FOR THE DIAGNOSIS AND DETECTION OF TUMORS AND CANCER PROGNOSIS” (priority 2018, published 2020).
Entries after “also recorded” stand apart in the source; their conditions may differ. Marks after values point to notes of the source that are not given here.

Experiments:
HPV16 DNA [1] = experiment: CLIA test for HPV16, performance characteristics in salivary rinse
Text: (§1) These primer/probe sets were adapted for development of a CLIA test for HPV16 DNA detection in plasma and salivary rinses (Table 2). Test performance was improved, so that analytical sensitivity in salivary rinse spike in assays ranges from 2.5-5.0 DNA copies/mL with 100% specificity for the three primer/probe sets that are now part of the component assay, resulting in a five-fold improvement in analytic sensitivity that is in the range of sensitivity found in sequence based liquid biopsy methods (FIG. 23, Table 2). Additionally, the assays can be used quantitatively, with measuring ranges between 2.0 log10-7.0 log10 copies/mL.

HPV16 DNA [2] = experiment: CLIA test for HPV16, performance characteristics in plasma
Text: as §1

HPV-16 genome = experiment: qPCR sensitivity against HPV-16 copy number (known-copy HPV-16 DNA among 10 ng normal human DNA)
Text: (§2) All samples were run in triplicates.
To seek the most promising primer-probe set in the viewpoint of sensitivity, Applicants evaluated the sensitivity analysis for these candidate primer-probe sets. […] Therefore, the sensitivity of E6 (FIG. 3A) and E7 (FIG. 3B) was also 30 copies. […] The candidate primer-probe sets were the “Min-4” (FIG. 3C), “Min-5” (FIG. 3D), “Min-6” (FIG. 3E), “Max-10” (FIG. 3F), “E6-11” (FIG. 3G), “E6-13” (FIG. 3H), respectively.
In addition, Applicants performed sensitivity analysis to identify the most sensitive primer/probe set from among the candidate sets.
To validate the function of primer/probe sets, Applicants calculated the slope of delta Rn against cycle threshold for HPV-16 copy number detection from defined HPV copy number DNA derived from CaSki cell line.

HPV DNA = experiment: CLIA HPV test pilot study on saliva rinse samples from HPV-positive HNSCC patients and non-cancer controls; set-up: species or system HPV16; HPV16 DNA measured by CLIA HPV test: unit not given here
Experimental: As a final validation, Applicants a small pilot study was performed on a blinded set of saliva rinse samples from 28 patients with HPV-positive HNSCC and 15 salivary rinses from non-cancer controls. […] The sensitivity increased to 96% when all three sets were used (Table 3).

HPV-16 [3] = experiment: qPCR on 20 ng DNA from saliva samples of HPV-HNSCC patients; conditions: 28 HPV-HNSCC saliva samples
Experimental: as §2
The sensitivity of detection from saliva 20 ng DNA samples is 32.1% (9/28) in E6 primer-probe sets, 42.9% (12/28) in E7 primer-probe sets, 35.7% (10/28) in “Min-5” primer-probe sets, 46.4% (13/28) in “Max-10” primer-probe sets. The sensitivity of combination of “5” and “10” is 50% (14/28) and that of E6 and E7 is 42.9% (12/28). By the standard curve analysis, the copy numbers that detected by “Max-10” primer-probe sets were the highest in these 4 primer-probe sets. The slope of standard curve is −3.5 in “Min-5” primer-probe sets when delta Rn is plotted against cycle threshold (FIG. 5).

HPV-16 [4] = experiment: qPCR sensitivity against HPV-HNSCC tumor samples diluted among 10 ng normal human DNA
Experimental: Quantitative real-time polymerase chain reaction (qRT-PCR) was used to examine the threshold in each experiment. qRT-PCR was performed using Quant Studio 6 Flex Real-Time PCR System (Thermo Fisher Scientific). All samples were run in triplicates. HPV-16 viral amplicon copy number estimations were developed using the CaSki cell line. After amplification of the amplicon by PCR, DNA concentration was calculated by weight NanoDrop®, then converted to DNA copy number by calculation based on the molecular weight of the double stranded amplicon. […] In the other 32 HPV-HNSCC cohort, Applicants diluted the tumor sample to 990 pg, 198 pg, 99 pg, 39.6 pg, 7.9 pg, 3.2 pg, and 1.6 pg of amount tumor weight, (correspond to 150, 30, 15, 6, 1.2, 0.6, and 0.3 cells: assumption that 1 tumor cell have 6.6 pg DNA (=3*10^9 (human DNA genome bp)*2 (diploid)*1.67*10^(−24) g (weight/Dalton))) combined with 10 ng normal leukocyte human DNA and compare the threshold of each primer-probe sets.
In this regard, Applicants investigated the other 32 HPV-HNSCC tumor samples. From the assumption that 1 cell tumor DNA contain 6.6 pg DNA, Applicants made the dilution series by DNA derived from normal lymphocyte as described and decide the threshold for each primer-probe set.
Furthermore, to determine whether these designed primer/probe sets also have a high sensitivity in a separate cohort, Applicants performed PCR in a validation cohort of 32 additional primary tumor samples with validated presence of HPV-16. Applicants prepared serial of dilutions of tumor DNA in normal lymphocyte DNA from non-cancer individuals and determined the threshold for each primer/probe set and defined amplification thresholds expressed in number of tumor cells for each sample (Table 5).

[5] = first template ('... HPV16', word is an image)
[6] = second template (name is an image)
[7] = among 10 ng normal DNA, triplicate qPCR
[8] = samples tested 3 times, 10 ng DNA from healthy individual
[9] = tumor DNA dilution, fraction of 32 samples

B1: E7: previously designed (historical) HPV-16 E7 primers and Taqman probe, SEQ ID NO: 10-12; part of CLIA test (nucleic acid)
DNA 1: CCGGACAGAGCCCATTACAA
DNA 2: CGAATGTCTACGTGTGTGCTTTG
DNA 3: CGCACAACCGAAGCGTAGAGTCACACT
modifications: Taqman probe, labels not given here
notes: part of CLIA test
HPV16 DNA [1]; first template ('... HPV16')
  Measuring Range - Salivary Rinse: 2.0-8.5 log10 log10 copies/mL
HPV16 DNA [1]; [5]
  Limit of Detection - Salivary rinse: 3 copies/mL
HPV16 DNA [1]; [6]
  Limit of Detection - Salivary rinse: 23 copies/mL
  Measuring Range - Salivary Rinse: 2.0-6.5 log10 log10 copies/mL
HPV16 DNA [2]
  Accuracy - Plasma Blind Panel, Negative % Agreement: 90%
  Accuracy - Plasma Blind Panel, Positive % Agreement: 100%
  Accuracy - Plasma Blind Panel, Total % Agreement: 97%
HPV16 DNA [2]; first template ('... HPV16')
  Measuring Range - Plasma: 2.0-8.5 log10 log10 copies/mL
HPV16 DNA [2]; [5]
  Limit of Detection - Plasma: 1.5 copies/mL
HPV16 DNA [2]; [6]
  Limit of Detection - Plasma: 13 copies/mL
  Measuring Range - Plasma: 2.0-5.0 log10 log10 copies/mL
HPV-16 genome; HPV-16 genome among normal 10 ng DNA samples, consistent triplicate reaction
  sensitivity (HPV-16 copies): 30 copies
HPV-16 genome; [7]
  reaction under 10 copies of HPV-16 genome: reacted inconsistently
  reaction under 30 copies of HPV-16 genome: reacted consistently triplicate; also recorded: reacted consistently in triplicates
HPV-16 genome; [8]
  number of reactions against 10 HPV-16 copies: 2 reactions
  number of reactions under 30 HPV-16 copies: 3 reactions
HPV DNA; 28 patients with HPV-positive HNSCC
  sensitivity for the detection of HPV DNA in saliva rinse samples: 82%
HPV DNA; saliva sample from HPV-HNSCC patient # 1
  HPV16 DNA measured by CLIA HPV test: 328000
HPV DNA; saliva sample from HPV-HNSCC patient # 2
  HPV16 DNA measured by CLIA HPV test: 50000
HPV DNA; saliva sample from HPV-HNSCC patient # 3
  HPV16 DNA measured by CLIA HPV test: 48500
HPV DNA; saliva sample from HPV-HNSCC patient # 4
  HPV16 DNA measured by CLIA HPV test: 46500
HPV DNA; saliva sample from HPV-HNSCC patient # 5
  HPV16 DNA measured by CLIA HPV test: 14700
HPV DNA; saliva sample from HPV-HNSCC patient # 6
  HPV16 DNA measured by CLIA HPV test: 7320
HPV DNA; saliva sample from HPV-HNSCC patient # 7
  HPV16 DNA measured by CLIA HPV test: 4950
HPV DNA; saliva sample from HPV-HNSCC patient # 8
  HPV16 DNA measured by CLIA HPV test: 1570
HPV DNA; saliva sample from HPV-HNSCC patient # 9
  HPV16 DNA measured by CLIA HPV test: 1020
HPV DNA; saliva sample from HPV-HNSCC patient # 10
  HPV16 DNA measured by CLIA HPV test: 981
HPV DNA; saliva sample from HPV-HNSCC patient # 11
  HPV16 DNA measured by CLIA HPV test: 521
HPV DNA; saliva sample from HPV-HNSCC patient # 12
  HPV16 DNA measured by CLIA HPV test: 155
HPV DNA; saliva sample from HPV-HNSCC patient # 13
  HPV16 DNA measured by CLIA HPV test: 140
HPV DNA; saliva sample from HPV-HNSCC patient # 14
  HPV16 DNA measured by CLIA HPV test: 82.7
HPV DNA; saliva sample from HPV-HNSCC patient # 15
  HPV16 DNA measured by CLIA HPV test: 62.6
HPV DNA; saliva sample from HPV-HNSCC patient # 16
  HPV16 DNA measured by CLIA HPV test: 41.2
HPV DNA; saliva sample from HPV-HNSCC patient # 17
  HPV16 DNA measured by CLIA HPV test: 14.1
HPV DNA; saliva sample from HPV-HNSCC patient # 18
  HPV16 DNA measured by CLIA HPV test: 9.69
HPV DNA; saliva sample from HPV-HNSCC patient # 19
  HPV16 DNA measured by CLIA HPV test: 8.17
HPV DNA; saliva sample from HPV-HNSCC patient # 20
  HPV16 DNA measured by CLIA HPV test: 6.5
HPV DNA; saliva sample from HPV-HNSCC patient # 21
  HPV16 DNA measured by CLIA HPV test: 4.02
HPV DNA; saliva sample from HPV-HNSCC patient # 22
  HPV16 DNA measured by CLIA HPV test: 2.52
HPV DNA; saliva sample from HPV-HNSCC patient # 23
  HPV16 DNA measured by CLIA HPV test: 0.986
HPV-16 [3]
  sensitivity of detection from saliva 20 ng DNA samples: 42.9%
HPV-16 [4]; 32 HPV-HNSCC tumor samples
  sensitivity under 100 cells: 96.9%
HPV-16 [4]; 32 HPV-HNSCC tumor samples, 6.6 pg DNA
  sensitivity under single cells: 9.4%
HPV-16 [4]; 32 HPV-HNSCC tumor samples, 66 pg DNA
  sensitivity under 10 cells: 68.8%
HPV-16 [4]; Sample # 1
  Threshold of tumor cell numbers for HPV-16 detection: 60.0 tumor cells
HPV-16 [4]; Sample # 2
  Threshold of tumor cell numbers for HPV-16 detection: 30.0 tumor cells
HPV-16 [4]; Sample # 3
  Threshold of tumor cell numbers for HPV-16 detection: 30.0 tumor cells
HPV-16 [4]; Sample # 4
  Threshold of tumor cell numbers for HPV-16 detection: 150.0 tumor cells
HPV-16 [4]; Sample # 5
  Threshold of tumor cell numbers for HPV-16 detection: 6.0 tumor cells
HPV-16 [4]; Sample # 6
  Threshold of tumor cell numbers for HPV-16 detection: 6.0 tumor cells
HPV-16 [4]; Sample # 7
  Threshold of tumor cell numbers for HPV-16 detection: 30.0 tumor cells
HPV-16 [4]; Sample # 8
  Threshold of tumor cell numbers for HPV-16 detection: 15.0 tumor cells
HPV-16 [4]; Sample # 9
  Threshold of tumor cell numbers for HPV-16 detection: 30.0 tumor cells
HPV-16 [4]; Sample # 10
  Threshold of tumor cell numbers for HPV-16 detection: 6.0 tumor cells
HPV-16 [4]; Sample # 11
  Threshold of tumor cell numbers for HPV-16 detection: 6.0 tumor cells
HPV-16 [4]; Sample # 12
  Threshold of tumor cell numbers for HPV-16 detection: 30.0 tumor cells
HPV-16 [4]; Sample # 13
  Threshold of tumor cell numbers for HPV-16 detection: 6.0 tumor cells
HPV-16 [4]; Sample # 14
  Threshold of tumor cell numbers for HPV-16 detection: 6.0 tumor cells
HPV-16 [4]; Sample # 15
  Threshold of tumor cell numbers for HPV-16 detection: 6.0 tumor cells
HPV-16 [4]; Sample # 16
  Threshold of tumor cell numbers for HPV-16 detection: 6.0 tumor cells
HPV-16 [4]; Sample # 17
  Threshold of tumor cell numbers for HPV-16 detection: 1.2 tumor cells
HPV-16 [4]; Sample # 18
  Threshold of tumor cell numbers for HPV-16 detection: 6.0 tumor cells
HPV-16 [4]; Sample # 19
  Threshold of tumor cell numbers for HPV-16 detection: 1.2 tumor cells
HPV-16 [4]; Sample # 20
  Threshold of tumor cell numbers for HPV-16 detection: 1.2 tumor cells
HPV-16 [4]; Sample # 21
  Threshold of tumor cell numbers for HPV-16 detection: 1.2 tumor cells
HPV-16 [4]; Sample # 22
  Threshold of tumor cell numbers for HPV-16 detection: 1.2 tumor cells
HPV-16 [4]; Sample # 23
  Threshold of tumor cell numbers for HPV-16 detection: 1.2 tumor cells
HPV-16 [4]; Sample # 24
  Threshold of tumor cell numbers for HPV-16 detection: 1.2 tumor cells
HPV-16 [4]; Sample # 25
  Threshold of tumor cell numbers for HPV-16 detection: 0.3 tumor cells
HPV-16 [4]; Sample # 26
  Threshold of tumor cell numbers for HPV-16 detection: 0.3 tumor cells
HPV-16 [4]; Sample # 27
  Threshold of tumor cell numbers for HPV-16 detection: 1.0 tumor cells
HPV-16 [4]; Sample # 28
  Threshold of tumor cell numbers for HPV-16 detection: 1.0 tumor cells
HPV-16 [4]; Sample # 29
  Threshold of tumor cell numbers for HPV-16 detection: 3.0 tumor cells
HPV-16 [4]; Sample # 30
  Threshold of tumor cell numbers for HPV-16 detection: 15.0 tumor cells
HPV-16 [4]; Sample # 31
  Threshold of tumor cell numbers for HPV-16 detection: 0.6 tumor cells
HPV-16 [4]; Sample # 32
  Threshold of tumor cell numbers for HPV-16 detection: 15.0 tumor cells
HPV-16 [4]; [9]
  Sensitivity, 1 cell: 0.094
  Sensitivity, 3 cells: 0.375
  Sensitivity, 10 cells: 0.688
  Sensitivity, 30 cells: 0.938*
  Sensitivity, 100 cells: 0.969*
